Source: the nanobody polyreactivity screen of Harvey et al. (2022)

Assay: yeast display, Sf9 membrane polyspecificity reagent, FACS + sequencing; frameworks hold sequencing errors
Outline: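 In a synthetic yeast display library (Saccharomyces cerevisiae BJ5465), nanobody expression was induced with galactose for 36–48 hours. FACS gates were set low and high (top ~1%) using anti-HA fluorescence for expression and streptavidin fluorescence for binding of the Sf9 membrane reagent. Each polyreactivity label is drawn from the gate of origin.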

Sequence | polyreactivity (PSR sort gate)
QVQLVESGGGLVQAGGSLRLSCAASGRTFWYYTMGWYRQAPGKERELVAAITSGGSTYYADSVKGRFTISRDNAKNTVYLQMNSLKPEDTAVYYCAAYLYWDFTYYYALVDYWGQGTQVTVSS | high polyreactivity
QVQLVESGGGLVQAGGSLRLSCAASGITFGYYAMGWYRQAPGKERELVAAITWSGSSTYYADSVKGRFTISRDNAKNTVYLQMNSLKPEDTAVYYCAAEYSSHYAVWRGHSGYWGQGTQVTVSS | high polyreactivity
QVQLVESGGGLVQAGGSLRLSCAASGRTFNRYAMGRYRQAPGKERELVAVITSDGRRNYADSVKGRFTISRDKAKNTVYFQINSLKPEDTAVSYCNKRSALSFVYDFDYWGQGTQVTVSS | low polyreactivity
QVQLVESGGGLVQAGGSLRLSCAASGFILYSYAMGWYRQAPGKERELVAGISIGGITNYADSVKGRFTISRDNAKNTVYLQMNSLKPEDTAVYYCATDGTTYIWDGDYWGQGTQVTVSS | low polyreactivity
QVQLVESGGGLVQAGGSLRLSCAASGRTFKYYAMGWYRQAPGIEREFVAAITVSGGSTYYADSVKGRFTISRDNAKNPVYLQMNSLKPEDTAVYYCAARYQRYSSKTIQNEDYWGQGTQVTVSS | high polyreactivity
QVQLVESGGGLVQAGGSLRLSCAASGRTYSQNAMGWYRQSPGKERELVAAIRRGGSTNYADSVKGRFTISRDNAKNTVYLQMNSLKPEDSAVYDCAADLRRNGWGFDYWGLGTQVTVSS | high polyreactivity
QVQLVESGGGLVQAGGSLRLSCAASGRTFGYNVMGWYRQAPGKERELVAVINGRGGSTYYADSVKGRFTISRDNAKNTVYLQMNSLKPEDTAVYYCNVVSGGYFEYDYWGQGTQVTVSS | high polyreactivity
QVQLVESGGGLVQAGGSLRLSSAASGRTFYYYAMGWYRQAPGKERELVAAITSRGTSTYYADSVKGRFTISRDNAKNTVYLQMNSLKPEDTAVFYCAAGFICYYGNGYDYWGQGTQVTVSS | high polyreactivity
QVQLVESVGGLVQAGGSLRLSCAASGSIFYDNGMGWYRQAPGNERELVAAISRGGTTNYADSVKGRFTISRDKAKNTVYLQMNSLKPEDTAVYYCNAETRFTYWGSWYDYWGQGTQVTVSS | low polyreactivity
QVQLVESGGGLVQAGGSLRLSCAASGSILGYYVMGWYRQAPGKERELVAAISWSSGSTYYADSVKGRFTISRDNAKNTVYLQLNSLKPEDTAVYYCNASNVYFWFVTLEFDSWGQGTQVTVSS | low polyreactivity
QVQLVESGGGLVQAGGSLRLSCAASGFTFRYYAMGWYRQAPGKEREFVAAITYNGVSTYYADSVKGRFTISRDNAKNTVYLQMNSLKPEDTAVYYCAADVLLSRSNTPQRPSRLYYWGQGTQVTVSS | high polyreactivity
QVQLVESGGGLVQAGGSLRLSCAASGRTFPVNAMGWYRQAPAKQSELVATISWSGGSTYYADSVKGRFTISRDNAKNTVYLQMNSLKPEDTAVYYCAALGRHYRYDYWGQGTQVTVSS | low polyreactivity
QVHLVESGGGLVQAGGSLRLSCAASGFIFKFDAMGWYRQAPGKEREMVAAITASSGRTNYADSVKGRFTISRDNAKNTVYLHMNSLKPEDTAVYFCAARRWPKYSAYRYDYWGQGTQVTVSS | high polyreactivity
QVQLVESGGRLVQAGCSLRLSCAASGSIFDVYAMGWYRPAPGKERELVAAISRGGRTYYADSVKGRFTISRDNAKNTVYLQMNSLKPEDTAVYYCAAVTRLDGNMDYWGQGTQVTVSS | high polyreactivity
QVQLVESGGGLVQAGGSLRLSCAASGFTFYRYAMGWYRKAPGKERELVAAITRSGSRTYYADSVKGRFTISRDNAKNTVYLQMNSLKPEDTAVYYCKTDGGDHPTARYGYWGQGTQVTVSS | high polyreactivity
QVQLVESGGGLVQAGGSLRLSCAASGFTFAYYAMGWYRQAPGKERELVAAITRGGGRTFYADSVKGRFTISRDNAKNTVYLQMNSLKPEDTAVYYCAAVKDTTNSRGYGYWGQGTQVTVSS | high polyreactivity
QVQLVESGGGLVQAGGSLRLSCAASGRIFWGYDMGWYRQAPGKEREFVAAISSGGGRKYYADSVKGRFTISRDNAKNTVYLQMNSLKPEDTAVYYCNAELNWYYYIHLDYWGQGTQVTVSS | low polyreactivity
QVQLVESGGGLVQAGGSLRLSCAASGSTFYSNAMGWYRQAPGKERELVAGIDTSDGSTNYADSVKGRITISRDNAKNTVYLQMNSLKPEDTAVYYCNTTLRDSRQYVDRAPYTRYDYWGQGTQVTVSS | low polyreactivity
QVQLVDSGGGLVQAGGSLRLSCAASGFTFRDYAMGWYRQAPRKERELVAAISRSGDSTYYADSVKGRFTISRDNAKNTVYLQMNSLKPEDTAVYYCNTAGFYWLHYTMDYWGQGTQVTVSS | high polyreactivity
QVQLVESGGGLVQAGGSLRLSCAASGSIFDLYDMGWYRQAPGKERELVAAISLIGGSTSYADSVKGRFTISRDNAKNTVYLQMNSLKPEDTAVYYCAVEKFFRAEYDHWGQGTQVTVSS | low polyreactivity
QVQLVESGGGLVQAGGSLRLSCAASGRTFHRYVMGWYRQAPGKERELVAAITSGGRTTYADSVKGRFTISRDNAKNTVYLQMNSLKPEDTAVYYCAAELTVRGTWVQQRTFRYDYWGQGTQVTVSS | low polyreactivity
QVHLVESGGGLVQAGGSLRLSCAASGRTFVRYAMGWYRQAPGKERELVARITARGTSTYYADSVKGRFTISRDNAKNTVYLQMNRLKPEDTAVYYCNKVRTFRDKSRYDYWGQGTQVTVSS | low polyreactivity

Sequence | polyreactivity (PSR sort gate)
QVQLVESGGGLVQAGGSLRLSCAASGRIFSGYAMGWYRQAPGKEWELVAAITWSGGSTYADSVKGRFTISRDNAKHTVYLQMNTLKPEDTAVYYCNTSARYNGSYKYDYWGQGTQVTVSS | low polyreactivity
QVQLVESGGGLVQAGGSLRLSCAASGFTFRYYAMGWYRQAPGKEWELVARITWNGGRTYYADSVKGRFTISRDNAKNTLYLQMNSLKPEDTAVYYCAARGFYRSYYWGQGTQVTVSS | high polyreactivity
QDQIVESGGGLVQAGGSLRLSCSATGRTYVIYAMGWYRQAHGKERELVASIRRGGSTSYADSVKGRFTISRDNAKNTVYLQMKSLKPEDTAVYYCAAGAHRASSSGNGYWGQGSQVTVSS | high polyreactivity
QVQLVESGGGLVQAGGSLRLICAASGRTFRGNAKGCYRQAPGKERELVAAISGRGTNTYYADSVKGRFTISRDNAKNTVYLQMNSLKPEDTAVYYCAKVFYSYRDHYDYWGQGTQVTVSS | high polyreactivity
QLQLVESGGGLVQAGGSLRLSCAASGSTFYTNAMGWYRQAPGKERELVAVITSRGGGTYYADSVKGRFTISRDNAKNTVYLQMNSLKPEDTAVYYCAAYPLVSWGRHGTKGDYWGQGTQVTVSS | low polyreactivity
QVQLVESGGGLFQAGGSLRLSCAASGSIFNRYAMGWYRQAPGKERELVAAISSGGRTKYADSVKGRFTISRDNAKNTVYLQMNSLKPEDTAVYYCNAAYFLSGTCRTFDYWGQGTQVTVSS | high polyreactivity
QVQLVESGGGLVQAGGSLRLSCAASGSTFQHYAMGWYRQAPGKERELVAAITHTGGSTYYADSVKGRFTISRDNAKNTVYLQMNSLKPEDTAVYYCATVGRRYGYPGYYWGQGTQVTVSS | low polyreactivity
QVQLVESGGGLVQAGGSLRLSCADSGLTFWAYAMGWYRQAPGKARELVAGISSGVSTYYADSVKGRFTISRDNAKNTFYLQMNSLKPEDTEVYYCAAYVYTWYYYDVGYWGQGTQVTVSS | high polyreactivity
QVQLVESGGGLVQAGGSLRLSCAASGSIFAWYGMGWYRQAPGKERELVAAISTAGSTNYADSVKGRFTISRDNAKNTVYLQMNSLKQEDSAVYYCAKKSSWYYPERFDYWGQGTQVNVSS | low polyreactivity
QVQLVESGGGLVQAGGSLRLSCAASGIIFYGYVMGWYRQAPGKERELVATITSSGGSTYYADSVKGRFTISRDNAKNTVYLQMNSLKPEDTGVYYCAADYYYGAWVRHDYWGQGTQVTLSS | low polyreactivity
QVQLVESGGGLDQAGGSLRLSCAASGSTFVGYAMGWYRQAPGKERELVAAISYSGGRTYYADSVKGRFTISRDNAKNTVYLQMNSLKPEDTAVYYCAALVGGSGWWGRDYWGQGTQVTVSS | high polyreactivity
QVQHEDSGGGLVQAGGSLRLSCAASGRIFLYYAMGWYRQAPGKERELVAAISSGTSTYYADSVKGRFTISRDNAKNTVYLQMNSLKPEDTAVYYCAAYYYSYPTNGGYGYWGQGTQVTVSS | low polyreactivity
QVQLVESGGCLVQAGGSLRLSCAASGRIFDHYAMGWYRQAPGKERELVAAITRSGGITYYADSVKGRFTISRDNAKNTVYLQMNSLKPDDTAVFYCAAYLKGNYYLGIARYVLYYWGQGTQVTVSS | low polyreactivity
QVQLVESGGGLVQAGGSLRLSCAASGGIFLDYVMGWYRPATGKQRELVAAISGSGGTNYADSVKGRFTISRDNAKNTVYLQMNSLKPEDTAVYYCAAVGYYSYSYYTKVGVDYWGQGTQVTVSS | high polyreactivity
QLQLEESGGGLVQAGGSLRLSCAASRRIIVGYAKGRYRQAPGKEREFVAAITFRGGTTYYADSVKGRLTISRDNAKNTVYLQMNSLNQEDSAVYYCAVPHYLYSVEFGYWGQGTQVTVSS | low polyreactivity
QVQLVESGGGLVQAGGSLRLICAASGSIFRPNAMGWYRQAPGKERELVAAITWSGDSTYYADSVKGRFTISRDNAKNTVYLQMNSLKPEDTAVYYCAADFTYQGSSANDYWGQGTQVTVSS | low polyreactivity
HVQLVESGGALVQAGGSLRLSCAASGYIFYYYAMGWYRQAPGKERELVAAITFSGGSTYYADSVKGRFTISRDIAKNTVYLQMNSLKPEDTAGYYCDKVELRDAAELGSDEYDYWGQGTKVTVSS | low polyreactivity
QVQLVESGGGLVQAGGSLRLSCAASGSTIVGYAMGWYRQAPGKERELVAAISRTGASTYYADSVKGRFTISRDNAKNTVYLQMISLKPEDTAVYYCAAGREYWGVTREYWGQGTQVTVSS | high polyreactivity
QVQLVESGGGLVQAGGSLRLICAASGFIFNKNAMGWYRQAPGKERELVAAISQIGGTTYYADSVKGRFTISRVNAKNTVYLQMNSLKPEDTSVYYCAASRRVQSDYWGQGTQVTVSS | high polyreactivity
QVQLVESGGGLVQAGGSLRLSCAASGSTFSLYAMGWYRQAPGKERELVASSRWSGGRTYDADSVKGRFTISRDNAKNTVYLQMNSLKPEDTAVYYCAAAWRYGYGYLGQGTQVTVSS | high polyreactivity
QVQLVESGGGLVQAGGSLRLSCAASGRIFWDNAMGWYRQAPGKERELVAAIDYRGGNTNYADSVKGRFTISRDNAKNTVYFQMNSLKPEDTAVYYCNAEWAVRYPGYDYWGQGSQVTVSS | low polyreactivity
